According to article PMC12375108:

Target: GST-tagged T. marianensis hinT H100N (Thermaerobacter marianensis)
Test: BLI; GST-hinT (90 nM) immobilised on anti-GST biosensors; sucA-AMP 500 to 7.81 nM, unmodified sucA at 500 nM; 10 mM Tris pH 8, 150 mM NaCl, 0.1% Triton X-100; KD from steady-state responses, one site

B1: AMPylated sucA (enzyme)
chain: MQNSALKAWLDSSYLSGANQSWIEQLYEDFLTDPDSVDANWRSTFQQLPGTGVKPDQFHSQTREYFRRLAKDASRYSSTISDPDTNVKQVKVLQLINAYRFRGHQHANLDPLGLWQQDKVADLDPSFHDLTEADFQETFNVGSFASGKETMKLGELLEALKQTYCGPIGAEYMHITSTEEKRWIQQRIESGRATFNSEEKKRFLSELTAAEGLERYLGAKFPGAKRFSLEGGDALIPMLKEMIRHAGNSGTREVVLGMAHRGRLNVLVNVLGKKPQDLFDEFAGKHKEHLGTGDVKYHMGFSSDFQTDGGLVHLALAFNPSHLEIVSPVVIGSVRARLDRLDEPSSNKVLPITIHGDAAVTGQGVVQETLNMSKARGYEVGGTVRIVINNQVGFTTSNPLDARSTPYCTDIGKMVQAPIFHVNADDPEAVAFVTRLALDFRNTFKRDVFIDLVCYRRHGHNEADEPSATQPLMYQKIKKHPTPRKIYADKLEQEKVATLEDATEMVNLYRDALDAGDCVVAEWRPMNMHSFTWSPYLNHEWDEEYPNKVEMKRLQELAKRISTVPEAVEMQSRVAKIYGDRQAMAAGEKLFDWGGAENLAYATLVDEGIPVRLSGEDSGRGTFFHRHAVIHNQSNGSTYTPLQHIHNGQGAFRVWDSVLSEEAVLAFEYGYATAEPRTLTIWEAQFGDFANGAQVVIDQFISSGEQKWGRMCGLVMLLPHGYEGQGPEHSSARLERYLQLCAEQNMQVCVPSTPAQVYHMLRRQALRGMRRPLVVMSPKSLLRHPLAVSSLEELANGTFLPAIGEIDELDPKGVKRVVMCSGKVYYDLLEQRRKNNQHDVAIVRIEQLYPFPHKAMQEVLQQFAHVKDFVWCQEEPLNQGAWYCSQHHFREVIPFGASLRYAGRPASASPAVGYMSVHQKQQQDLVNDALNVE
modifications: multiple AMPylation sites, residues not given
B1 was tested, and the Kd was 9 nM.
